In article PMC11301259, “The crystal structure of methanogen McrD, a methyl‐coenzyme M reductase‐associated protein” (FEBS Open Bio, 2024):

Biological target: the molecule itself
Assay: crystal structure; McrD at 22 mg/mL crystallised at 4 °C in 0.03 M MgCl2, 0.03 M CaCl2, 0.05 M MES, 0.05 M imidazole pH 6.5, 20% glycerol, 10% PEG 4000, 0.02 M carboxylic acids mix; space group C222(1), two molecules in the asymmetric unit; 1.65 Å; oligomerisation analysis with PISA

B1: Methanomassiliicoccus luminyensis strain B10 McrD (natural protein, UniProt A0AAT8XUI9 1-139, looked up)
chain: MSTDKFEPVPLPEILIFPNRLLSAETTEKLLNRVYDVPHVRQVNISGEGVPAMVGSGPGKGLPVEHEGRKVINVKGREIELQLLVGRVFVEIDDIDVVEKAIEAIDEICQELLPFGYNLEVGRYSKYRPTVTDYKKGKR
notes: McrD of Methanomassiliicoccus luminyensis strain B10, NCBI WP_019176772.1; 139 amino acids; cloned with primers from the start codon to the stop codon; in the crystal residues 1-129/130 are modelled, the C-terminal 10 (monomer A) or 9 (monomer B) residues are disordered; 18 (monomer A) and 9 (monomer B) residues of the plasmid-encoded N-terminal tag are seen in the electron density, so the tag …
  stoichiometry N: 2
